According to US10006080B2, “High-selectivity contact activation inhibitor based on infestin-4” (OBSCHESTVO S OGRANICHENNOY OTVETSTVENNOSTYU …, priority 2013, dated 2018):

Legend:
[1] = system: hypercoagulant PFP; assay: Thrombodynamics analyzer T-2, clots far from the activator in hypercoagulant PFP (100 pM fXIa added); assay type: biochemical, human; settings: MutB 20 μM, CTI 15 μM; for time of appearance of clots far from the activator after activation: hypercoagulant PFP, nearly 5-8 minutes without inhibitor
Method: To assess the influence of the said contact activation inhibitors on appearance, far from the activator, of clots provoked by hypercoagulation, but not by contact activation of the sample by the cuvette walls, we added MutB (20 μM) and CTI (15 μM) into 2 separate samples of hypercoagulant PFP. Hypercoagulant PFP was obtained from normal frozen-thawed PFP by adding 100 pM of fXIa.
The influence of a polypeptide consisting of the sequence of an infestin-4 mutant MutB on the growth of fibrin clots in the samples of hypocoagulant, normal, and hypercoagulant blood plasma was studied using the laboratory diagnostic system «Thrombodynamics analyzer T-2» and the «Diagnostic kit for thrombodynamics investigation in blood plasma» (HemaCore, Moscow, Russia) according to the manual to the «Diagnostic kit for thrombodynamics investigation in blood plasma» (HemaCore, Moscow, Russia). Here, the said polypeptide was preliminarily proteolytically cleaved and chromatographically purified from thioredoxin (Trx). 15 minutes before the assay, the measuring cuvette, insert-activator with immobilized TF, and the reagents were held at 37° C. Standard investigation temperature was of 37° C. 15 minutes before the assay, 120 microliters of plasma were mixed with the investigated substances, MutB or CTI, for comparison, and put into a microtube. After mixing of the plasma with the substances, the tube with the plasma was put into a thermostat at 37° C. for 15 minutes. Immediately before the assay, the plasma was re-calcified: 120 microliters of the mixture of plasma and substances were put into a microtube with Reagent II (lyophilized solution of calcium acetate with an additive), and mixed up to complete Reagent II dilution. Then, 120 microliters of the mixture with Reagent II from the microtube was immediately transferred into the measuring cuvette. After that, the insert-activator was carefully inserted into the cuvette so that the surface with immobilized tissue factor would contact the plasma. Immediately after the contact of the coagulation activator with the blood plasma, the photography of the process of fibrin clot growth in plasma within the cuvette started. The cuvette-activator was a plate with the coagulation activator—tissue factor—immobilized at the low end surface (Fadeeva et al. 2010, Biochemistry (Moscow) 75:827-838). The automatic calculation of the assay results was performed using the software (user manual «Software for the laboratory diagnostic system «Thrombodynamics analyzer T-2», HemaCore, Moscow, Russia).

[2] = system: whole blood; assay: Spontaneous clotting time of whole blood collected without calcium chelator; design: species or system human; settings: MutB 10 μM, CTI 5 μM; 22° C., no calcium chelator; 3 healthy donors
Method: We used concentrations of contact activation inhibitors leading to 2.5-fold increase of APTT in normal plasma. Untreated whole blood was collected from 3 healthy donors without adding any anticoagulant, for example, citrate, except for the said contact activation inhibitors. The blood was mixed with the said inhibitors at 22° C. using a rotator, after which the time of clot formation in the blood was measured.
Blood was collected from the median cubital vein of the left hand into a sterile syringe Master UN PE, volume 10 ml, needle 21 G×1½″; 0.8×40 mm (FarmLine, USA). Calcium chelator or other anticoagulants, except contact activation inhibitors MutB or CTI, were not added into plasma. […] The collected blood was poured into a 15 ml tube, mixed by inverting it twice, after which 0.7 ml portions of blood were poured into 1.5 ml polypropylene microcentrifuge tubes MaxyClear Snaplock (Axygen, USA); immediately after, time record using a stopwatch started. Preliminarily, 78 microliters of MutB solution at 100 μM concentration, CTI solution at 50 μM concentration, or buffer solution of 30 mM Hepes pH 7.4 were added into the said tubes. The tubes containing the mixture of whole blood with the said solutions were fixed in the rotator and mixed by inverting them at the rotation speed of 10 rpm. The time of appearance of clots or fibrin filaments in the whole blood during mixing was fixed.

[3] = biological target: T1, factor XIIa (UniProt P00748 20-615, limits assumed); assay: chromogenic test (S-2302), IC50 converted by Cheng-Prusoff
T1 construct: also called fXIIa
T1 sequence (looked up): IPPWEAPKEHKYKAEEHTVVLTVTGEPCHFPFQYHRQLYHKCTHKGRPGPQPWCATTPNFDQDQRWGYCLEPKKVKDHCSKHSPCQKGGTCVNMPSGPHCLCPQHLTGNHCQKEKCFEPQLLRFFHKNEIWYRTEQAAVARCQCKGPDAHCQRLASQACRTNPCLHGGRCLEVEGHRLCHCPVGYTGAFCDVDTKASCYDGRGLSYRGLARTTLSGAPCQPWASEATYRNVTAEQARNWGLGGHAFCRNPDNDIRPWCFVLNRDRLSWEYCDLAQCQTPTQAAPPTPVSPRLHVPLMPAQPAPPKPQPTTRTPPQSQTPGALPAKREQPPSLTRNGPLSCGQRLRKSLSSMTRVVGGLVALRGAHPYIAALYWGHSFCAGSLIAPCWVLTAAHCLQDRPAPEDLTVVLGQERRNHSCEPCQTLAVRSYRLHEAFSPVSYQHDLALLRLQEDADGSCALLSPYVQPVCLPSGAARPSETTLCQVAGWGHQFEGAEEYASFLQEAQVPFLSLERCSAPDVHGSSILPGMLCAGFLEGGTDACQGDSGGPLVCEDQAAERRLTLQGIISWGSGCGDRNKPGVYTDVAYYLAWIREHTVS
Method: (§1) To determine the inhibition activity of such proteins as MutB, CTI, Inf4, Mut15, and LCTI-III as related to different coagulation proteases in a buffer, the chromogenic test was used: the mixture of protease and inhibitor was incubated in the wells of the plate for 15 minutes at 37° C., after which the chromogenic substrate solution was added to the mixture, and the protease activity was measured as the rate of chromogenic product formation at 37° C.
(§2) Chromogenic substrates included a p-nitroanilide group cleaved by the corresponding proteases. After cleavage of the p-nitroanilide group from the substrate molecule, the group absorption spectrum changes, and the change of concentration of such product within time can be detected at the light wavelength of 405 nm using a plate spectrophotometer. To build a dependence curve of the protease activity from the inhibitor concentration, different inhibitor concentrations were added into several samples with the same protease concentration. After that, the inhibitor concentration able to decrease the protease activity by 50% (IC50) was determined. The inhibition constant Ki was calculated using the Cheng-Prusoff equation (Ki=IC50/(1+S/KM)), where S is the initial substrate concentration, KM is the Michaelis-Menten constant of the substrate to the protease.

[4] = biological target: T2, factor XIa (UniProt P03951 19-625); assay: chromogenic test (S-2366), IC50 converted by Cheng-Prusoff
T2 construct: also called fXIa
Method: as §1, §2

[5] = biological target: T3, activated protein C (UniProt P04070 43-197; P04070 212-461); assay: chromogenic test (Spectrozyme pCa), IC50 converted by Cheng-Prusoff
T3 construct: also called aPC
Method: as §1, §2

T3 sequence (P04070 43-197, form in doubt, chain 1 of 2): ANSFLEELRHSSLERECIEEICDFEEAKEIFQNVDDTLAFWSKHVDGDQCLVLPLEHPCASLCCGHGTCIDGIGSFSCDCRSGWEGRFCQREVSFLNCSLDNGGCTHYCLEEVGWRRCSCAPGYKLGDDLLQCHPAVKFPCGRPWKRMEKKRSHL
T3 sequence (P04070 212-461, form in doubt, chain 2 of 2): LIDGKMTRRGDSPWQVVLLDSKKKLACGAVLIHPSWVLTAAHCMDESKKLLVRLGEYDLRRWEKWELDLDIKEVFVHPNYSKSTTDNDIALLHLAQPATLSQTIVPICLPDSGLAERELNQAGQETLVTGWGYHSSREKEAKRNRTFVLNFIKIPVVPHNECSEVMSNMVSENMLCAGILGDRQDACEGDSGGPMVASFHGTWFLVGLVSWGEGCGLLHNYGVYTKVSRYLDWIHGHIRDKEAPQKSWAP

Q: “MutB: polypeptide comprising the sequence of infestin-4 mutant MutB (SEQ ID NO: 1), inhibition loop TRNFVA; high-selectivity fXIIa inhibitor (EVRNPCACTRNFVAVCGSDGKTYGNPCMLNCAAQTKVPGLKLVHEGRCQRSNVEQF; Infestin-4 mutant MutB)” was tested. Which “influence on appearance of clots far from the activator in hypercoagulant plasma” value [1] did it give?
A: The value was “does not influence appearance of clots far from the activator”.

Q: What about the “time of appearance of clots far from the activator after activation” value [1] of the same molecule?
A: Its value is 5 to 8 min.

Q: And the “increase of the whole blood storage time in the tube (clotting time)” value [2]?
A: The value was “two to three-fold”.

B1: corn trypsin inhibitor (other, UniProt P01088 29-138, looked up)
chain: SAGTSCVPGWAIPHNPLPSCRWYVTSRTCGIGPRLPWPELKRRCCRELADIPAYCRCTALSILMDGAIPPGPDAQLEGRLEDLPGCPREVQRGFAATLVTEAECNLATIS
notes: Isolated from corn; also called CTI
Q: Which Ki [3] does the source give for B1 here?
A: The Ki was 1 nM.

Q: What about the Ki [4] of the same molecule?
A: Its Ki is 15 µM.

Q: And the Ki [5]?
A: The Ki was 20 µM.

Q: What about the “influence on appearance of clots far from the activator in hypercoagulant plasma” value [1] of the same molecule?
A: Its value is “delays appearance of clots far from the activator”.

Q: What about the “time of appearance of clots far from the activator after activation” value [1] of the same molecule?
A: The value was 10 to 15 min.

Q: What about the “increase of the whole blood storage time in the tube (clotting time)” value [2] of the same molecule?
A: Its value is “two to three-fold”.
